This is an account of results in patent publication US20160068835A1, “FLEXIBLE DISPLAY METHOD” (PEPTIDREAM INC., priority 2013, published 2016).

Where no end group is shown, it is not given here. [ ]: non-standard residue; d: D form. The star is where a group is joined. ClAB‑L‑Phe = N-[3-(2-chloroacetamido)benzoyl]-L-phenylalanine, O=C(CCl)Nc1cccc(C(=O)N[C@@H](Cc2ccccc2)C(=O)*)c1; puromycin = COc1ccc(C[C@H](N*)C(=O)N[C@H]2[C@@H](O)[C@H](n3cnc4c(N(C)C)ncnc43)O[C@@H]2CO)cc1; An21 Pu‑linker = not defined here

The target in assay [1] is T1, human serum albumin (HSA) (Homo sapiens, UniProt P02768). The assay can be described thus: Bonding assay of chemically synthesized peptides by Bio-Layer Interferometry (BLI method). The assay is classed as binding. As to conditions: 50 mM Hepes-KOH pH 7.5, 300 mM NaCl, 0.05% Tween20, 0.001% DMSO, 30° C.; peptide 1-16 nM; FIG. 8. As to the method:
(§1) Next, these peptides were chemically synthesized by Fmoc solid phase synthesis, and the bond to HSA was assessed using the Bio-Layer Interferometry method (BLI method). A bonding assay was performed under the condition of 50 mM Hepes-KOH pH 7.5, 300 mM NaCl, 0.05% Tween20 and 0.001% DMSO at 30° C. Each step of the assay consists of the bond reaction of peptide to HSA being 500 s, and the dissociation reaction being 500 s. The peptide solution was created by the following dilution series (p1: 16, 12, 8, 2, 1 nM, and p2: 16, 12, 8, 4 nM).

Assay [2] has as its target T1, human serum albumin (HSA). In words: Pull-down of peptides displayed as An21-type complexes with HSA-immobilized SA beads, recovered cDNA quantified by real-time PCR. The assay is classed as binding. As to conditions: An21-type display complexes; HSA-immobilized SA beads vs SA beads free of HSA; FIG. 5e. The procedure:
Derivative peptides having reverse and shuffled sequences of the selected peptides (p1 and p2) and the original peptide were prepared as the An21-type complexes. […] Furthermore, since the bonding activity to HSA is lost when the amino acid sequence of the obtained cyclic peptide is reconfigured (reversed or shuffled), it could be seen that the bond of peptide to HSA is sequence-dependent (FIG. 5e).
mRNAs of p1 and p2 were synthesized from the colony PCR product. The reverse or shuffled sequences of the mRNAs of the p1 and p2 peptides were prepared as follows. The DNA template was prepared using T7SD8M2.F44 as the forward primer, and SD8No38revG5S4.R69, SD8No38ranG5S4.R69, SD8No41revG5S4.R75 or SD8No41ranG5S4.R75 as the reverse primer. An elongation PCR and transcription were performed by a method similar to the method used in preparation of T7-mRNA. mRNA was purified by phenol/chloroform extraction and 2-propanole precipitation, and dissolved in ultrapure water.
Translation (2 μL), reverse transcription (4 μL), and the quenching reaction (5.25 μL) were performed by the above method.
2 μL of the obtained solution was mixed with HSA immobilized SA beads (0.3 pmol HSA) or SA-beads. After incubation at room temperature for 10 min., the beads were washed three times with 10 μL of HBST. […] The recovered cDNA was quantified with real-time PCR.
A general note: Quantitative PCR measures a nucleic acid by following its amplification.

Assay [3] addresses T2, human serum albumin (human, UniProt P02768 25-609).
T2 construct: also called HSA
The assay can be described thus: pull-down of the An21-type display complex on HSA-immobilized SA beads, recovered cDNA quantified by real-time PCR. The procedure:
Derivative peptides having reverse and shuffled sequences of the selected peptides (p1 and p2) and the original peptide were prepared as the An21-type complexes. The obtained complexes were subjected to pull-down using the HSA-immobilized SA beads and the SA beads free of HSA, and the recovered cDNA was quantified, which provided the result that p1 and p2 actually bond with HSA (FIG. 5e). Furthermore, since the bonding activity to HSA is lost when the amino acid sequence of the obtained cyclic peptide is reconfigured (reversed or shuffled), it could be seen that the bond of peptide to HSA is sequence-dependent (FIG. 5e).

Assay [4] concerns the target T2, human serum albumin. In words: Bio-Layer Interferometry (BLI), synthetic peptide at 16, 12, 8, 4 nM, 30 C. The procedure: as §1
(Biolayer interferometry detects binding as a change in optical thickness at a sensor tip.)

Assay [5] concerns the target T2, human serum albumin. In words: Bio-Layer Interferometry (BLI), synthetic peptide at 16, 12, 8, 2, 1 nM, 30 C. The procedure:
as §1

As to “XSQWDPWAIFWC ([ClAB‑L‑Phe]SQWDPWAIFWC; thioether (positions not given here); not fully specified (bridges)) [p2, X is ClAB-L-Phe, cyclized by thioether bond with Cys]”, in assay [1], the “bond to HSA (BLI binding curve)” value was “bond to HSA”. The “bond with HSA (recovered cDNA after pull-down)” value in assay [2] is on record as “actually bond with HSA”.
The corresponding values for “XTYNERLFWC ([ClAB‑L‑Phe]TYNERLFWC; thioether (positions not given here); not fully specified (bridges)) [p1, X is ClAB-L-Phe, cyclized by thioether bond with Cys]” are “bond to HSA” and “actually bond with HSA”.

B1: Shuffled p2, displayed as An21-type complex (peptide)
peptide: [ClAB‑L‑Phe]DQSPWWWIAFCGGGGGS
modifications: thioether (positions not given here); not fully specified (C-terminus, bridges); also: C-terminal Pu-linker annealed to its mRNA/cDNA (display complex)
notes: also called No41ran
In the case of B1, in the assay with human serum albumin [3], the binding result is “no binding”.

B2: p2: XSQWDPWAIFWC (X is ClAB-L-Phe), chemically synthesized cyclic peptide (peptide)
peptide: [ClAB‑L‑Phe]SQWDPWAIFWC
modifications: thioether (positions not given here); not fully specified (bridges)
notes: Made by Fmoc solid phase synthesis for the BLI assay; also called compound p2
As to B2, the binding result with human serum albumin [4] is recorded as “binds”.

B3: Shuffled p1, displayed as An21-type complex (peptide)
peptide: [ClAB‑L‑Phe]RFETLNWYCGGGGGS-{puromycin-An21 Pu‑linker}
modifications: thioether (positions not given here); not fully specified (bridges); reading uncertain; also: C-terminal Pu-linker annealed to its mRNA/cDNA (display complex)
notes: also called No38ran
Turning to B3, the binding result in the assay with human serum albumin [3] is on record as “no binding”.

B4: p1: XTYNERLFWC (X is ClAB-L-Phe), chemically synthesized cyclic peptide (peptide)
peptide: [ClAB‑L‑Phe]TYNERLFWC
modifications: thioether (positions not given here); not fully specified (bridges)
notes: Made by Fmoc solid phase synthesis for the BLI assay; also called compound p1
Regarding B4, in the assay with human serum albumin [5], the binding result was “binds”.

B5: Reversed p1, displayed as An21-type complex (peptide)
peptide: [ClAB‑L‑Phe]WFLRENYTCGGGGGS-{puromycin-An21 Pu‑linker}
modifications: thioether (positions not given here); not fully specified (bridges); reading uncertain; also: Pu-linker annealed to its mRNA/cDNA (display complex)
notes: also called No38rev
With B5, the binding result with human serum albumin [3] was “no binding”.

B6: Reversed p2, displayed as An21-type complex (peptide)
peptide: [ClAB‑L‑Phe]WFIAWPDWQSCGGGGGS
modifications: thioether (positions not given here); not fully specified (C-terminus, bridges); also: Pu-linker annealed to its mRNA/cDNA (display complex)
notes: also called No41rev
In the case of B6, the binding result in the assay with human serum albumin [3] was “no binding”.
